{"source": "patent US20150291521", "about": "“PYRROL-1-YL BENZOIC ACID DERIVATIVES USEFUL AS MYC INHIBITORS” (DANA-FARBER CANCER INSTITUTE, INC., published 2015)", "key": {"[1]": {"target": "Max/Max homodimer (Homo sapiens, UniProt P61244 P61244:1-160)", "sequence (P61244 whole entry, one chain of several)": "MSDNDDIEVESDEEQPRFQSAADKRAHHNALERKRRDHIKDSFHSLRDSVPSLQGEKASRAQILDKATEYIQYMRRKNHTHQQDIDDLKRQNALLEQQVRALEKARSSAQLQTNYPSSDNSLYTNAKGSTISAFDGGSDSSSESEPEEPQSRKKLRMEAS", "assay": "EMSA; Max/Max/Ebox complex; disrupted by compound 101, not 79", "conditions": "tags: His6-Max; chain copies: 2 (stated); label: 5' biotin-triethyleneglycol; self-complementary"}, "[2]": {"target": "c-Myc/Max heterodimer (Homo sapiens, UniProt P01106-1;P61244 P01106-1:1-439,P61244:1-160)", "sequence (P01106 16-454, chain 1 of 2)": "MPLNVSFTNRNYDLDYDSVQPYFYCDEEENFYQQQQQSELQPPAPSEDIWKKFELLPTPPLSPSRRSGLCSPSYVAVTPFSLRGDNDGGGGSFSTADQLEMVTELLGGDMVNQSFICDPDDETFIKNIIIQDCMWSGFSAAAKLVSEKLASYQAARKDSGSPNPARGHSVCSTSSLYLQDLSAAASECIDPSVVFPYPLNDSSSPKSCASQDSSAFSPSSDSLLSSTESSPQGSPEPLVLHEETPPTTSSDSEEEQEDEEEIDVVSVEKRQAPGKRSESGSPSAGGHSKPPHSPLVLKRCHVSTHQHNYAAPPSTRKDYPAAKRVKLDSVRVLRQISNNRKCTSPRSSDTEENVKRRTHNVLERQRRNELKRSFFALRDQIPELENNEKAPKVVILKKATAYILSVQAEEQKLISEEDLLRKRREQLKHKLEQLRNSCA", "sequence (P61244 whole entry, chain 2 of 2)": "as the sequence (P61244 whole entry, one chain of several) above", "assay": "EMSA; complex formed with purified proteins; inhibited dose-dependently by compound 63", "conditions": "tags: c-Myc full-length, His6 removed by thrombin (assay 1) or His6-c-Myc (reciprocal assay), label: 5' biotin-triethyleneglycol, self-complementary"}}}
{"binder": "Ebox DNA (dsDNA) DNA 1: GGAAGCAGACCACGTGGTCTGCTTCC DNA 2: GGAAGCAGACCACGTGGTCTGCTTCC", "values": [{"measurement": "binding result", "setting": "[1]", "value": "binds"}, {"measurement": "binding result", "setting": "[2]", "value": "binds"}]}
